Data reported in IntAct's records for PubMed 16777958.

Molecular target: ack1_mouse Tnk2 (UniProt O54967)
Sequence (O54967 whole entry): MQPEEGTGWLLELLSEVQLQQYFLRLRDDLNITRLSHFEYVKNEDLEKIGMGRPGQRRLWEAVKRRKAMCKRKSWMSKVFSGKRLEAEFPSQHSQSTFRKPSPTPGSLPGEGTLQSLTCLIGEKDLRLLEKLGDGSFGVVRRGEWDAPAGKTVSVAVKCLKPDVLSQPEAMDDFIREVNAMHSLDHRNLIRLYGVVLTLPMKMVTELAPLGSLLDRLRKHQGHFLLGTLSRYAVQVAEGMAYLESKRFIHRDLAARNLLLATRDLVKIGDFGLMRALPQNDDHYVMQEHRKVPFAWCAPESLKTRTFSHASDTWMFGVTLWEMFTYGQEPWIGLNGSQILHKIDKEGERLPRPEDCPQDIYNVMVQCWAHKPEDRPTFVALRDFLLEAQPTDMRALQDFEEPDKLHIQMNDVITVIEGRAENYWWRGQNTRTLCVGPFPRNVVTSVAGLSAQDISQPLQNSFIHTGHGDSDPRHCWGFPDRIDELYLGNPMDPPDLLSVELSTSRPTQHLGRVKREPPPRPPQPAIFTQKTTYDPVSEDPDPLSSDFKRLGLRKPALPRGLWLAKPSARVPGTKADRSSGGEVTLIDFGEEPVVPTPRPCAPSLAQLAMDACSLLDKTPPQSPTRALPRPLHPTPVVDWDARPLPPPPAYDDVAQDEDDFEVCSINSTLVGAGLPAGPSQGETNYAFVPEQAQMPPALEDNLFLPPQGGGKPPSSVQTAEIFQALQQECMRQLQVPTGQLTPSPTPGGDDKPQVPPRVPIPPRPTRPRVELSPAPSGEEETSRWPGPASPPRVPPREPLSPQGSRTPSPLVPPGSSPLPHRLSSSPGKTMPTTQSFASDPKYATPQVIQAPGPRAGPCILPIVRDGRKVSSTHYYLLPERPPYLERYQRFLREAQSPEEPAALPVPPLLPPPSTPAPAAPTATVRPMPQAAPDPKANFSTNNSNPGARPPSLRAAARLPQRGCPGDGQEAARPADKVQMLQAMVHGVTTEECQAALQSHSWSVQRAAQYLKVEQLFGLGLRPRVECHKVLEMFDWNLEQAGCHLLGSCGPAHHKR

## SH2/SH3 adapter protein NCK1 (Homo sapiens) (from UniProt P16333-1) R308A
  effect of a mutation on the interaction: disrupting interaction strength
